Targets include cof2_human CFL2 (UniProt Q9Y281); ntaq1_human NTAQ1 (UniProt Q96HA8); hxb5_human HOXB5 (UniProt P09067); ctbp2_human CTBP2 (UniProt P56545); aapk1_human PRKAA1 (UniProt Q13131); otx1_human OTX1 (UniProt P32242); gors2_human GORASP2 (UniProt Q9H8Y8); dpyl3_human DPYSL3 (UniProt Q14195); ubql1_human UBQLN1 (UniProt Q9UMX0); nasp_human NASP (UniProt P49321); lhx8_human LHX8 (UniProt Q68G74); fhl3_human FHL3 (UniProt Q13643); traf2_human TRAF2 (UniProt Q12933); fxl18_human FBXL18 (UniProt Q96ME1); erep1_human ENTREP1 (UniProt Q15884); pdli7_human PDLIM7 (UniProt Q9NR12); hnrl1_human HNRNPUL1 (UniProt Q9BUJ2).

The next test addresses T1, dest_human DSTN (UniProt P60981).
T1 sequence: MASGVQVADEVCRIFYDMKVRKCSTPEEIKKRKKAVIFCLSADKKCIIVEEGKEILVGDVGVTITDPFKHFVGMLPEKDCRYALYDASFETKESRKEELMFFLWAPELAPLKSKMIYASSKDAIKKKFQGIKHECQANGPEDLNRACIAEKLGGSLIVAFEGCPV

In the next test the target is T2, cry2_human CRY2 (UniProt Q49AN0).
T2 sequence: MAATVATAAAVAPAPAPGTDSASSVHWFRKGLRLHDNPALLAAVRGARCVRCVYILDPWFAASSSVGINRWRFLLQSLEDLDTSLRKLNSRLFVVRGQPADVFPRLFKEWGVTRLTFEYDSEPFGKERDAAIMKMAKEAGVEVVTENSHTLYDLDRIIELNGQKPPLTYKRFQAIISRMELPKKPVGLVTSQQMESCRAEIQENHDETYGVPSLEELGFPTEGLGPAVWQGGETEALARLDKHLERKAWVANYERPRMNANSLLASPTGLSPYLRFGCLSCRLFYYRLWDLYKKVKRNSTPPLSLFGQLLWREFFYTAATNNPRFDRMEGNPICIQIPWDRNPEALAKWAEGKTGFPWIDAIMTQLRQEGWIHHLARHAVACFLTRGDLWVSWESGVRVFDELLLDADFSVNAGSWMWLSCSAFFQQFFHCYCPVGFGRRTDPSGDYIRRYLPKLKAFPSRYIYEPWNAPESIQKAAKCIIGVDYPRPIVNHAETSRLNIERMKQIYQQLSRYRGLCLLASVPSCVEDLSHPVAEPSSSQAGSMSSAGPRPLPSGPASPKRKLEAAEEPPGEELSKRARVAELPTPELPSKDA

The next test deals with T3, dpyl5_human DPYSL5 (UniProt Q9BPU6).
T3 sequence: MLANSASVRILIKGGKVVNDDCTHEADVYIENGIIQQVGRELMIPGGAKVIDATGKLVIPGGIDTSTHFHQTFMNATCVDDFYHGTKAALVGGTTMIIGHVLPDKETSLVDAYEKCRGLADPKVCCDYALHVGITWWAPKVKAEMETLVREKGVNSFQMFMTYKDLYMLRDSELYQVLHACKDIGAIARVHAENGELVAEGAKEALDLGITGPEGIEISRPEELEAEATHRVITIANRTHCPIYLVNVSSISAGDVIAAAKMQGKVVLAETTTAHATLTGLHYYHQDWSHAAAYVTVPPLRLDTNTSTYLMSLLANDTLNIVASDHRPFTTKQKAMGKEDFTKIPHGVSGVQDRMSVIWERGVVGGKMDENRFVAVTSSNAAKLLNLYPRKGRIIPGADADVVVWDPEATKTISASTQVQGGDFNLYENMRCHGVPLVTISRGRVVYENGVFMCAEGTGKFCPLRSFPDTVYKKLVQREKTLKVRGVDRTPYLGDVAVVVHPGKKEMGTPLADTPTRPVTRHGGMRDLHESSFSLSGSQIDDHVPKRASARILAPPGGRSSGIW

Chain of Isoform 1 of Krueppel-like factor 3 (Homo sapiens), P57682-1 C322F (P57682 whole entry C322F, canonical isoform): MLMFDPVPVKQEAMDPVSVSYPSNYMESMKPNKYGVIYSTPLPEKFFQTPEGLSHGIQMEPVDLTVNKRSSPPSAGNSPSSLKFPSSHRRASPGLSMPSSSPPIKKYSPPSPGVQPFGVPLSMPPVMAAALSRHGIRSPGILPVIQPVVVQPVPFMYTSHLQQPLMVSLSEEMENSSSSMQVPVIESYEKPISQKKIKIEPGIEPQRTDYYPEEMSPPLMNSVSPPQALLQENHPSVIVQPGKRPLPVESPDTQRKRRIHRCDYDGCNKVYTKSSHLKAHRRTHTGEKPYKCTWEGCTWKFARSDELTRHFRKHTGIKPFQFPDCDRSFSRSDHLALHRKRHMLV
Chain of hnrl1_human HNRNPUL1 (Q9BUJ2 whole entry): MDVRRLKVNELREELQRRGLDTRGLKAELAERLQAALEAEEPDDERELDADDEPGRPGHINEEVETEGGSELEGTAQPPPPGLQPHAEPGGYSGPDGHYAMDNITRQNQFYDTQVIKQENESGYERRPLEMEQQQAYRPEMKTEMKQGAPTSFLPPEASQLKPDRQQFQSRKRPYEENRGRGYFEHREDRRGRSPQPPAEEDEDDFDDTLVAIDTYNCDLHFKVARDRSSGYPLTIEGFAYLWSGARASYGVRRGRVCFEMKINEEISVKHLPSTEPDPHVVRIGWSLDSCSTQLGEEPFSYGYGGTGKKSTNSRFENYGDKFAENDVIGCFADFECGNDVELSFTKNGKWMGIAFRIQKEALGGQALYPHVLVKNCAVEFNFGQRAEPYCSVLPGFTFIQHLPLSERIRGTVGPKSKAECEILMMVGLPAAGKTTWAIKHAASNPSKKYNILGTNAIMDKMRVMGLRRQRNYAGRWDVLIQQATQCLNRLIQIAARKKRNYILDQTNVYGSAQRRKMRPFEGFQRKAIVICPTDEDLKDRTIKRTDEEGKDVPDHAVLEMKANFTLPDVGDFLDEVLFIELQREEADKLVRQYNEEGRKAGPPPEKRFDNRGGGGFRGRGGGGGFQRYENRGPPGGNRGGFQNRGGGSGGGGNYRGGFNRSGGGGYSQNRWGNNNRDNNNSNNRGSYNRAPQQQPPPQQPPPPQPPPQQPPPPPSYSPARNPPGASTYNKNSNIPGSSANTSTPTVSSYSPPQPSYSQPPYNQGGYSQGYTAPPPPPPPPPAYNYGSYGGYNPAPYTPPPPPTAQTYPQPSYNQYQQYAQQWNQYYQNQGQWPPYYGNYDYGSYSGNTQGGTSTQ
Chain of lhx8_human LHX8 (Q68G74 whole entry): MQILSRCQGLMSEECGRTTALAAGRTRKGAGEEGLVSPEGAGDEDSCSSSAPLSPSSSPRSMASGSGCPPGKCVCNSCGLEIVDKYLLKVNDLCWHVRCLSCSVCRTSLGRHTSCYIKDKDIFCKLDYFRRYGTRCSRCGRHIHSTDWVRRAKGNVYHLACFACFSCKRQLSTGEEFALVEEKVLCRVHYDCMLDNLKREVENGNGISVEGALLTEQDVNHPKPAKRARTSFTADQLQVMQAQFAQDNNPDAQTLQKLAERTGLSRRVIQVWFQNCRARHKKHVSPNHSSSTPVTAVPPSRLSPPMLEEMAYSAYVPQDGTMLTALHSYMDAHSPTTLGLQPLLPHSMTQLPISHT
Chain of otx1_human OTX1 (P32242 whole entry): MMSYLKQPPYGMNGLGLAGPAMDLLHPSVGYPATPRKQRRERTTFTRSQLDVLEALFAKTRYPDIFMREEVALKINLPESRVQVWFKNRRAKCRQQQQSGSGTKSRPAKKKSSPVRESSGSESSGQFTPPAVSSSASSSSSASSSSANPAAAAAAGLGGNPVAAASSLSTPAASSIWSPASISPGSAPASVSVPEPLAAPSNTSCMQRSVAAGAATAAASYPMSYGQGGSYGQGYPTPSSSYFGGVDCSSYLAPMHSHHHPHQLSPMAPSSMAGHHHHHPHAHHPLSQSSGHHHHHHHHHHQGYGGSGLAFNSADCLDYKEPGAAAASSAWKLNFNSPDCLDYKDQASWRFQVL
Chain of fxl18_human FBXL18 (Q96ME1 whole entry): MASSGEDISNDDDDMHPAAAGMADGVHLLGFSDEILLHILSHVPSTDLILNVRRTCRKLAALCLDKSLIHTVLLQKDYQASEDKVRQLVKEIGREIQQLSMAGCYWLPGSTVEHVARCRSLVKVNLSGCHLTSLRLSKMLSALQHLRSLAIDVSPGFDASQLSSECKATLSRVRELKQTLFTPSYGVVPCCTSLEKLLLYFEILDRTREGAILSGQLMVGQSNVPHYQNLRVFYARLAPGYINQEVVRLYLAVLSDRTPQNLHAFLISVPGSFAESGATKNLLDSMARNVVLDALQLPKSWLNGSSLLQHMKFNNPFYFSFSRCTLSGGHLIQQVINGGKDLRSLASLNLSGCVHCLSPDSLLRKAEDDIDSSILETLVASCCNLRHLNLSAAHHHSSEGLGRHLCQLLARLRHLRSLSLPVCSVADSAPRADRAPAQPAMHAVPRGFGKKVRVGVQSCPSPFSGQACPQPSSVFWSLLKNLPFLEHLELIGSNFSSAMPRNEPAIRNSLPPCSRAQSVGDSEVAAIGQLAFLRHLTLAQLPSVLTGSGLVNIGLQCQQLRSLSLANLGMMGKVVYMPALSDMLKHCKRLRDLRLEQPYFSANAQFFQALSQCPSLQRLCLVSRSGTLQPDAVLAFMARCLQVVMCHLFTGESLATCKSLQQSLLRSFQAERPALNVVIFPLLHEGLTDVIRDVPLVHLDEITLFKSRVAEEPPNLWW
Chain of aapk1_human PRKAA1 (Q13131 whole entry, looked up): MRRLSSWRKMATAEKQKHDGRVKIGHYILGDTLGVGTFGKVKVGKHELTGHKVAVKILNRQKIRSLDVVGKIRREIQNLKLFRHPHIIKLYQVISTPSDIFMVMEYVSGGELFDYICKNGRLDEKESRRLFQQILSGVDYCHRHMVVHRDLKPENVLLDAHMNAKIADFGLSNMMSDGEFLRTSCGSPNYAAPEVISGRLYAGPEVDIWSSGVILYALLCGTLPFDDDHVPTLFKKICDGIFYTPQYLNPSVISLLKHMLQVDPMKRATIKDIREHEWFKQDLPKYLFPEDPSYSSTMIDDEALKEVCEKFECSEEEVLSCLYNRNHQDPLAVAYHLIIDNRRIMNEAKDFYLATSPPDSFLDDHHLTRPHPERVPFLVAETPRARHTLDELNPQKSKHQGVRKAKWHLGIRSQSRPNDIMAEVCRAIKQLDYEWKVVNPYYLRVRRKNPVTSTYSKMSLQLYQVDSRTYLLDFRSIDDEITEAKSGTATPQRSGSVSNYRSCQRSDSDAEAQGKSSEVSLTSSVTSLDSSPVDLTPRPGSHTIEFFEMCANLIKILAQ
Chain of erep1_human ENTREP1 (Q15884 whole entry): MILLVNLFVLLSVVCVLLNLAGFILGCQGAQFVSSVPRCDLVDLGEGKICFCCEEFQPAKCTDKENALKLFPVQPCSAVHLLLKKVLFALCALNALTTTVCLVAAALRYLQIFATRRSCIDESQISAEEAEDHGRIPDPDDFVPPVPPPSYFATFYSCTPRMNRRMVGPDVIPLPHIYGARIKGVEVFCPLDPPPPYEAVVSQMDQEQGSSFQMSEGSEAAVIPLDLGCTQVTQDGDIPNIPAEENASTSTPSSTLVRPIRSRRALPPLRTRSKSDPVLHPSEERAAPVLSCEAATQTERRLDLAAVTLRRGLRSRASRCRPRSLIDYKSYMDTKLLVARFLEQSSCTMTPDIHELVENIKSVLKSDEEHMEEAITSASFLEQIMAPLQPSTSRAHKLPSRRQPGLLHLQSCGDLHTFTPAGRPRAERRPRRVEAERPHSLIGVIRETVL
Chain of pdli7_human PDLIM7 (Q9NR12 whole entry): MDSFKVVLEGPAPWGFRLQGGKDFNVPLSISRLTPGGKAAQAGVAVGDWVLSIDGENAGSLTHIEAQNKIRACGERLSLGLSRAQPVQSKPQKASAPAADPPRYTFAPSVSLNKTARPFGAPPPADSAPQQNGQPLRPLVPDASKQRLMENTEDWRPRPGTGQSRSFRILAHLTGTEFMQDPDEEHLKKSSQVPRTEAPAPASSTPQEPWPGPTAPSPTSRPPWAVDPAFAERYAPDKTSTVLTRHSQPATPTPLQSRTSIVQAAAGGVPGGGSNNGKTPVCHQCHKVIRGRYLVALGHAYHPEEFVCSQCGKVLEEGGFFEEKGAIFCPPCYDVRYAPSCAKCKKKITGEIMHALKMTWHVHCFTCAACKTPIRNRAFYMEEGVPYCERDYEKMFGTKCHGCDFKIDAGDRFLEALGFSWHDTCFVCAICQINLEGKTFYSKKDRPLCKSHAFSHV
Chain of fhl3_human FHL3 (Q13643 whole entry): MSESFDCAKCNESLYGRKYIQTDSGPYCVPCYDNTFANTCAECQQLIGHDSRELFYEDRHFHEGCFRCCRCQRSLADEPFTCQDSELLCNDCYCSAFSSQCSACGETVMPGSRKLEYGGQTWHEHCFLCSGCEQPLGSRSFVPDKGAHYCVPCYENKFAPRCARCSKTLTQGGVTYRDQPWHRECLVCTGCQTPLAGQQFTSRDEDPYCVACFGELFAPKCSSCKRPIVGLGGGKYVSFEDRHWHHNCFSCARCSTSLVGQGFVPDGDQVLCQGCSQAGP
Chain of ubql1_human UBQLN1 (Q9UMX0 whole entry): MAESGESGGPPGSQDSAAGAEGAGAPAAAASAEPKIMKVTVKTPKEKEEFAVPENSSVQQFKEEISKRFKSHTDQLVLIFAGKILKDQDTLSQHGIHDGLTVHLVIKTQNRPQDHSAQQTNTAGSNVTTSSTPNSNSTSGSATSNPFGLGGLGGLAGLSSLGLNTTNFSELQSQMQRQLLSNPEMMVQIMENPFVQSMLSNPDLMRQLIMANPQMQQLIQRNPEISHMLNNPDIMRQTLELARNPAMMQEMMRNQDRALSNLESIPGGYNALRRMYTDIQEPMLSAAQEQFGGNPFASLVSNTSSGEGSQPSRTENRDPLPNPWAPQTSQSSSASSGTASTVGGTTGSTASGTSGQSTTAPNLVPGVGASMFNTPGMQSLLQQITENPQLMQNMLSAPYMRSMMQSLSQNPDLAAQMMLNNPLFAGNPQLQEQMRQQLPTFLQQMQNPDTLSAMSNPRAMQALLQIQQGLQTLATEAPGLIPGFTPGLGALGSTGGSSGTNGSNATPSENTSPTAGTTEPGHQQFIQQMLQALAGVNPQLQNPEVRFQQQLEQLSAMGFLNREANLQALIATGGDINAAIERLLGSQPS

Take “Actin, cytoplasmic 1 (Homo sapiens) (from UniProt P60709) E364K”: the entries for the “effect of a mutation on the interaction” value with cof2_human CFL2, with dest_human DSTN and in the test with ntaq1_human NTAQ1 were “with no effect”, “disrupting interaction strength” and “disrupting interaction strength”, respectively.
“C-terminal-binding protein 1 (Homo sapiens) (from UniProt Q13363) A436T”: the “effect of a mutation on the interaction” value in the test with hxb5_human HOXB5, with ctbp2_human CTBP2, with cry2_human CRY2 and with aapk1_human PRKAA1 was “with no effect” throughout.
In the case of “Cartilage oligomeric matrix protein (Homo sapiens), P49747 N386D”, the “effect of a mutation on the interaction” value with otx1_human OTX1 is “with no effect”.
Regarding “Dihydropyrimidinase-related protein 2 (Homo sapiens) (from UniProt Q16555) A267S”, the “effect of a mutation on the interaction” value with gors2_human GORASP2, with dpyl5_human DPYSL5 and with dpyl3_human DPYSL3 was “with no effect” each time.
Consider “Frizzled-7 (Homo sapiens) (from UniProt O75084) P285S”, for which the “effect of a mutation on the interaction” value with ubql1_human UBQLN1 is recorded as “with no effect”.
As to “Histone H3.1 (Homo sapiens) (from UniProt P68431) A128G”, the “effect of a mutation on the interaction” value with nasp_human NASP was “with no effect”.
For “Isoform 1 of Krueppel-like factor 3 (Homo sapiens), P57682-1 C322F”, the “effect of a mutation on the interaction” value with lhx8_human LHX8, in the test with fhl3_human FHL3 and with traf2_human TRAF2 was “disrupting interaction strength” throughout.
As to “Isoform 1 of NEDD4-like E3 ubiquitin-protein ligase WWP2 (Homo sapiens), O00308-1 V717M”, the “effect of a mutation on the interaction” value with fxl18_human FBXL18, with erep1_human ENTREP1, with pdli7_human PDLIM7 and with hnrl1_human HNRNPUL1 was “with no effect” throughout.

Values taken from IntAct's records for PubMed 31515488.
